Test results: PMC8689207

Target: far-red light-acclimated photosystem I (FRL-PSI) complex of Synechococcus sp. PCC 7335, trimeric (Synechococcus sp. PCC 7335 (endogenous in Synechococcus 7335 cells))
Assay: cryo-EM structure; trimeric FRL-PSI isolated whole from FRL-grown Synechococcus 7335 cells (1% β-DM, two sucrose gradients, PIB: 50 mM MES pH 6.5, 15 mM CaCl2, 10 mM MgCl2); Fd not added; ~3 mg Chl/ml, plunge-frozen at 4 °C; C3 symmetry, 2.91 Å

Substance	stoichiometry N	occupancy
far-red light-acclimated photosystem I (FRL-PSI) complex of Synechococcus sp. PCC 7335, trimeric	3	–
ferredoxin PetF1 (soluble [2Fe-2S] ferredoxin) of Synechococcus sp. PCC 7335 (natural protein)	–	10%
